Experiments:
[1] = target: recombinant human CD25-Fc chimera (human) (UniProt P01589); assay: IP-FCM (capture on antibody beads, detection by flow cytometry); data not shown: as a4 with recombinant CD25, but 500 U/ml or 10,000 U/ml IL-2
[2] = target: recombinant human CD25-Fc chimera (human) (UniProt P01589); assay: IP-FCM (capture on antibody beads, detection by flow cytometry); CD25-Fc captured on anti-CD25 CML beads overnight, washed; IL-2 (1,000 U/ml) added for 1 h with or without Ro-26-4550 or control compounds; washed, probed with anti-IL-2
[3] = target: T1, IL-2 (Homo sapiens, UniProt P60568, C145S); assay: IP-FCM bead assay of the IL-2:CD25 interaction with recombinant proteins (also with endogenous CD25 captured from PBMC lysate); assay type: biochemical
T1 construct: gene IL2; recombinant human IL-2 (Proleukin); with CD25 (IL-2 receptor α-chain; recombinant human CD25-Fc chimera, or endogenous CD25 from PBMC lysate)
T1 sequence (P60568 22-153 C145S): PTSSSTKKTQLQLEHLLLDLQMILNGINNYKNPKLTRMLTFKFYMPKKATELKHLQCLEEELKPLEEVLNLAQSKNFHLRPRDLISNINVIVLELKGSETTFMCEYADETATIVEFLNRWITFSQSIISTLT
T1 sequence (P01589 22-272 partner): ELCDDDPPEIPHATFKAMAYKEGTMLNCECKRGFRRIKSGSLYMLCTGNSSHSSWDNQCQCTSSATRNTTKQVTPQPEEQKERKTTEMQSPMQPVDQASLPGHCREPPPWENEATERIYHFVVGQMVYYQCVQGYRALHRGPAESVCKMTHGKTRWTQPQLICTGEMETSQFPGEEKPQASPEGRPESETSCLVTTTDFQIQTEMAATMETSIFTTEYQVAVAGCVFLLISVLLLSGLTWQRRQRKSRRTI

Sequence of recombinant human IL-2 (Proleukin) (P60568 21-153): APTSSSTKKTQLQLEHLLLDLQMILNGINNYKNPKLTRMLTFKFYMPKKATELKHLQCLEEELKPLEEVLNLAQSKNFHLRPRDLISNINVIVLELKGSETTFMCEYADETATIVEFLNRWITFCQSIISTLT
Sequence of recombinant human CD25-Fc chimera (human) (P01589 22-240, stated change not applied): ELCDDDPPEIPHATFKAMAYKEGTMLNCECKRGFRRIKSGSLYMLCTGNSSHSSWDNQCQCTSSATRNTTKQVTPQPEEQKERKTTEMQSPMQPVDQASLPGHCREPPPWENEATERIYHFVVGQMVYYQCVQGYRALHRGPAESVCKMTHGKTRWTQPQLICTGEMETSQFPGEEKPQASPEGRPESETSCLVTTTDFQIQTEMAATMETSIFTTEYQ

Substance | percent reduction of binding with Ro-26-4550, 10,000 U/ml IL-2 [1] [%] | percent reduction of binding with Ro-26-4550 (10 mM [sic]), 1,000 U/ml IL-2 [2] [%] | % reduction of IL-2:CD25 binding at 10 μM (Methods; printed as 10 mM in Results) [3]
recombinant human IL-2 (Proleukin) (from UniProt P60568 21-153) (ligand) | 44 | 62 | 
Ro-26-4550 [R26] |  |  | 62 % reduction of IL-2:CD25 binding at 10 µM (Methods; printed as 10 mM in Results)
